The subject of test [1] is p42/p44 MAP kinase activity in WiDr cells. As to the kind of experiment: MAP kinase assay in WiDr cells after serum stimulation. It counts as cell-based, human. Conditions: WiDr wild-type; inhibitor 40 μM added one hour before serum. The procedure: (§1) Cultures of WiDr and HT29 mock and antisense β6 transfectants were established by seeding 1×10^6 cells/5 ml of culture medium in 25 cm^2 tissue culture flasks. Cells were incubated at 37° C. in humidified CO2 for 24 hours before serum starvation in serum-free medium for the next 16 hours. Foetal calf serum was then added to a final concentration of 10% for 30 mins before MAP kinase assays were performed. […] The ability of cells to transfer phosphate from [γ^32P]-ATP to a synthetic peptide that contains specifically a p42/p44 MAP kinase phosphorylation site was measured as described in the manufacturer's instructions. [^32P]-labelled peptides were spotted onto PE1-cellulose paper, unbound radioactivity was washed with 75 mM phosphoric acid and bound [^32P]-labelled peptides were measured by liquid scintillation counting. Protein estimation was performed on each cell lysate used and enzyme activity calculated as described in the manufacturer's instructions. […]
(§2) The effect of MEK (MAP kinase kinase) inhibitors U0126 and PD98059 on MAP kinase activity in WiDr and HT29 wild-type cells was tested in the absence/presence of serum. […] Serum was then added for 30 min and MAP kinase activity assessed before and after addition of serum. […]

Test [2] has as its system p42/p44 MAP kinase activity in HT29 cells. Description: MAP kinase assay in HT29 cells after serum stimulation. In kind it is cell-based, human. Conditions: HT29 wild-type; inhibitor 40 μM added one hour before serum. The procedure: as §1, §2
In test [3] the test system is gelatinase B secretion by SW480 β6 transfectants. Description: Gelatinase B secretion by gelatin zymogram. It counts as cell-based, human. Conditions: 40 μM; 48 hours; serum-free; compared with controls. As for the experimental part: SW480 β6 transfectants were cultured under serum-free conditions for 48 hours in the absence/presence of the MEK inhibitor PD98059 (40 μM) or DMSO (vehicle control). Tumour-conditioned medium was assayed for gelatinase B by analysis of equal protein loads in a gelatin zymogram.

For a further test, the system named is HT29 colon cancer cells. Description: WST-1 cell proliferation assay in HT29 cells. It counts as cell-based, human. Particulars: 10 μm, 24 hours, serum-free medium, FIG. 28. The procedure: HT29 and SW480 β6-expressing colon cancer cell lines were seeded into wells of 96-well microtitre plates (Nunclon) in Dulbecco's Modified Eagle's Medium (DMEM) supplemented with 10% foetal bovine serum, glutamine, Hepes, and antibiotics. […] The cell proliferation reagent WST-1 is designed to be used for the non-radioactive, spectrophotometric quantification of cell growth and viability in proliferation and chemosensitivity assays. […]
In particular, at the termination of experiments, 30 μl of WST-1 was added to 270 μl culture medium volume in each microtitre well and the colour change quantitated in an ELISA plate reader by measuring absorbance of the formazan product at 450 nm (using a reference wavelength of more than 600 nm). The mean absorbance readings from triplicate wells (±standard error of the means) after subtraction of background control wells (culture medium without cells) was determined.

Test [4] has as its system SW480 β6-expressing colon cancer cells. Particulars: for inhibition of cell proliferation (WST-1): SW480 β6-expressing, 30 μm, 24 hours, serum-free medium, FIG. 29.
Description: HT29 and SW480 β6-expressing colon cancer cell lines were seeded into wells of 96-well microtitre plates (Nunclon) in Dulbecco's Modified Eagle's Medium (DMEM) supplemented with 10% foetal bovine serum, glutamine, Hepes, and antibiotics. Seeding cell densities were 3×10^3 cells per triplicate well for each condition tested and after 24 hours incubation of cell cultures in 5% CO2, 100% humidity at 37° C., the culture medium was exchanged for serum-free DMEM medium supplemented with insulin, transferrin, selenous acid, hydrocortisone, non-essential amino acids, glutamine, Hepes and antibiotics containing either peptide [sequence] (SEQ ID NO. 2) alone or penetratin-peptide complex at a concentration of 10 μm for HT29 cells or 30 μm for SW480 β6-expressing cells. Cell cultures were incubated for a further 24 hours following which cultures were photographed (Kodak Techpan Film at 100 ASA setting) and the experiments terminated by addition of the cell proliferation reagent WST-1 (Boehringer Mannheim) to monitor effects of the peptide on cell growth.
SW480 mock and SW480 β6 transfectants were cultured in DMEM medium supplemented with 1% foetal bovine serum in the presence of 20 μM seq. […] Percentage inhibition was assessed by the WST-1 colorimetric dehydrogenase assay described in Example 6.
Growth inhibition of SW480 cells expressing full length wild-type β6 exposed to seq.4 coupled to penetratin or [sequence] (SEQ ID NO. 2) peptide coupled to penetratin (5, 10, 20, 30 μM in DMEM minus foetal bovine serum) but which peptide contained alanine substitutions at the four positions indicated was assessed.
The next test deals with T1, ERK2 (Mus musculus, UniProt P63085).
T1 construct: made in house
T1 sequence (P63085 whole entry): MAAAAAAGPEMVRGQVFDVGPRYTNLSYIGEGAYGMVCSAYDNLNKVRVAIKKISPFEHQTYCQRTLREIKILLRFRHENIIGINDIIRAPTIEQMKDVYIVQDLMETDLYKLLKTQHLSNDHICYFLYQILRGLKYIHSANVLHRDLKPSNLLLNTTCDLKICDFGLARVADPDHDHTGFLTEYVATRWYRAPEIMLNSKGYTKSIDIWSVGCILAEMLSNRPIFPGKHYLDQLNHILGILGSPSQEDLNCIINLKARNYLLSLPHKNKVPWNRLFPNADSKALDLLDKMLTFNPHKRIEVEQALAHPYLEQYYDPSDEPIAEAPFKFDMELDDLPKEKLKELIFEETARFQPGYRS
Description: ELISA binding of ERK2 to biotinylated integrin cytoplasmic domain peptides. Conditions: for binding of ERK2 to integrin β subunit cytoplasmic domain peptides: corrected for non-specific binding, FIG. 34; for binding of ERK2 (thrombin cleaved): ERK2 cleaved from GST-ERK2 by thrombin, compared to seq. 4, FIG. 23; for binding of GST.ERK2 to shorter test peptides: range of peptide concentrations, seq. 4 compared to fragment 2, seq. 3 compared to seq. 4, FIG. 20; for binding of non-phosphorylated ERK2: over a range of concentrations of ERK2, compared to fragments 1, 3 and 4, FIG. 18. As for the experimental part:
Peptide fragments corresponding to regions of the cytoplasmic tail domain of the β6 subunit were screened in an enzyme-linked immunosorbent assay (ELISA) for binding with ERK2. The […] β6 cytoplasmic tail is shown in FIG. 16 as are the amino acid sequences for the cytoplasmic domains of the β1 to β3 subunits. In particular, four synthetic peptides designated fragment 1 to fragment 4 were prepared and biotinylated at the N-terminal end of each, respectively (Auspep Pty Ltd, Melbourne Australia).
(§3) Overlapping biotinylated fragments 1 to 4 were coated onto streptavidin coated polystyrene plates (Pierce, Rockford Ill. USA, Cat No. 15125) and the ELISA performed substantially according to manufacturers instructions. Briefly, wells are washed with 3×200 μl of wash buffer (TBS, 0.1% BSA, 0.05% Tween 20 or SuperBlock™ blocking buffer in TBS, Pierce, Prod. No. 37535) prior to addition of biotinylated peptides (100 μl) and incubation for 1 hr at room temperature to allow for capture of the peptides on the plate. Following another washing step, peptides were overlayed with GST-ERK, ERK (or JNK-1) alone at a volume of 100 μl per well, and the plates incubated for a further 1 hr at room temperature before removal of any unbound ERK by further washing.
Binding of ERK to the peptides is detected using 100 μl anti-ERK1/2 mAb SC1647 (Santa Cruz) as the primary antibody at a dilution of 1:700 (isotype matched antibody IgG2b is used as a control). This is followed by another washing step and addition of 100 μl rabbit anti-mouse antibody (Biorad) conjugated to alkaline phosphatase at a concentration of 1:1000 for 30 minutes again at room temperature. A 100 μl aliquot of detection reagent (alkaline phosphatase detection kit-Biorad) is then introduced into each well after a final washing step and allowed to react for 15-30 minutes at room temperature in the dark before absorbance is measured at 405 nm. All dilutions of peptides, MAP kinase and antibodies were performed using the wash buffer. GST-ERK is a fusion protein consisting of ERK coupled to glutathione-S-transferase and purified from host cells transfected with pGEX vector.

The target of a further test is T2, JNK-1 (Homo sapiens, UniProt P45983).
T2 construct: purchased Santa Cruz
T2 sequence (P45983 whole entry, species assumed): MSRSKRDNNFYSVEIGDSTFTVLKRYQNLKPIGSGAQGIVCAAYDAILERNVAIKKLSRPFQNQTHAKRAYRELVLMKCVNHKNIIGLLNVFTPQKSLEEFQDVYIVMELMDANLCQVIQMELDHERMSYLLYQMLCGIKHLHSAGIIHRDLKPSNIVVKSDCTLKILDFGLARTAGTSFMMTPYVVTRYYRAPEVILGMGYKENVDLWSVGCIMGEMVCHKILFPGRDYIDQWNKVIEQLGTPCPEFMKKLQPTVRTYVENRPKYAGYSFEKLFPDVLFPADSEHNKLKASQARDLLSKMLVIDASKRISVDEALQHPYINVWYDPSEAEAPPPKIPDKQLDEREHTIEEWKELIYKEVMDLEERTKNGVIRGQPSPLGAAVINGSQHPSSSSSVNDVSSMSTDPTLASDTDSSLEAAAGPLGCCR
As to the kind of experiment: ELISA binding of JNK-1 to β6 cytoplasmic tail peptide. Particulars: JNK-1 0.05-1.5 μm/100 μl; increasing peptide concentrations; FIG. 24. The procedure: as §3
Briefly, 0.05-1.5 μm/100 μl of JNK-1 (Santa Cruz) was aliquoted into wells of a 96 well culture place containing increasing concentrations of the β6 cytoplasmic domain tail peptide used in Example 3. For comparison purposes, non-phosphorylated GST-ERK2 (0.05-1.5 μm/100 μl) was aliquoted into wells containing β6 cytoplasmic tail peptide or peptide fragments 1 or 2, respectively. Binding of JNK-1 was detected using mouse anti-JNK-1 mAb SC 474-G (Santa Cruz) and HRP-conjugated goat anti-mouse antibody.

Where a SMILES comes first, the peptide text is derived from it. Where no end group is shown, it is not given here. The star is where a group is joined. Biotin = O=C1N[C@H]2[C@H](CS[C@H]2CCCCC(=O)*)N1

Regarding `COc1cccc(-c2cc(=O)c3ccccc3o2)c1N` [PD98059], the “serum-stimulated MAP kinase activity” value in test [1] and in test [2] was “inhibitable” each time. In addition, in test [3], the “gelatinase B secretion” value is reported as “reduced gelatinase B secretion”. With `N#CC(=C(/N)Sc1ccccc1N)/C(C#N)=C(\N)Sc1ccccc1N` [U0126], the “serum-stimulated MAP kinase activity” value in test [1] and in test [2] was “inhibitable” throughout. Take `CC[C@H](C)[C@H](NC(=O)[C@H](CCCCN)NC(=O)[C@@H](NC(=O)[C@H](CCC(N)=O)NC(=O)[C@@H](N)CCCNC(=N)N)[C@@H](C)CC)C(=O)N[C@@H](Cc1c[nH]c2ccccc12)C(=O)N[C@@H](Cc1ccccc1)C(=O)N[C@@H](CCC(N)=O)C(=O)N[C@@H](CC(N)=O)C(=O)N[C@@H](CCCNC(=N)N)C(=O)N[C@@H](CCCNC(=N)N)C(=O)N[C@@H](CCSC)C(=O)N[C@@H](CCCCN)C(=O)N[C@@H](Cc1c[nH]c2ccccc12)C(=O)N[C@@H](CCCCN)C(=O)N[C@@H](CCCCN)C(=O)N[C@@H](CCCNC(=N)N)C(=O)N[C@@H](CO)C(=O)N[C@@H](CCCCN)C(=O)N[C@@H](C)C(=O)N[C@@H](CCCCN)C(=O)N[C@@H](Cc1c[nH]c2ccccc12)C(=O)N[C@@H](CCC(N)=O)C(=O)N[C@H](C(=O)NCC(=O)N[C@H](C(=O)N[C@@H](CC(N)=O)C(=O)N1CCC[C@H]1C(=O)N[C@@H](CC(C)C)C(=O)N[C@@H](Cc1ccc(O)cc1)C(=O)N[C@@H](CCCNC(=N)N)C(=O)O)[C@@H](C)O)[C@@H](C)O` [penetratin-peptide complex] (H-RQIKIWFQNRRMKWKKRSKAKWQTGTNPLYR-OH; N-terminus and C-terminus assumed): the “inhibition of cell proliferation (WST-1)” value (with HT29 colon cancer cells; in test [4]) was “effective in inhibiting cell proliferation” throughout. For the same compound, in test [4] (SW480 full length wild-type β6, 5, 10, 20, 30 μM in DMEM minus foetal bovine serum, FIG. 33), the “growth inhibition, dose response” value is “progressive inhibition of proliferation in a dose-response manner”. Turning to “RARAKWDTANNPLYK (HOMO SAPIENS) [β3, peptide corresponding to a region of the β3 cytoplasmic domain]”, the “binding of ERK2 to integrin β subunit cytoplasmic domain peptides” value in the test with ERK2 is recorded as “also found”. RSKAK (HOMO SAPIENS) [5 mer peptide]: the “binding of ERK2 (thrombin cleaved)” value with ERK2 was “Negligible binding”. Same read-out and setting: under “RSKAKNPLYR (HOMO SAPIENS) [10(4), 4 is omitted]” stands “Comparable binding”. For “RSKAKWQTGT (HOMO SAPIENS) [seq. 3, 10 mer test peptide from the β6 cytoplasmic tail]”, the “binding of GST.ERK2 to shorter test peptides” value with ERK2 is reported as “substantially less”. Turning to RSKAKWQTGTNPLYR (HOMO SAPIENS) [seq. 4], the “binding of ERK2 to integrin β subunit cytoplasmic domain peptides” value in the test with ERK2 is on record as “significant binding”. Moreover, the “binding of GST.ERK2 to shorter test peptides” value with ERK2 was “no reduction in binding”. Further, the “inhibition of cell proliferation (WST-1)” value (in the test on HT29 colon cancer cells; in test [4]) was “Only the carrier penetratin-peptide complex was effective” throughout. With “RSKAKWQTGTNPLYRGSTST (Biotin-RSKAKWQTGTNPLYRGSTST) [fragment 2, N-terminally biotinylated synthetic peptide of the β6 cytoplasmic tail]”, the “binding of non-phosphorylated GST.ERK2 to peptide fragment” value with ERK2 (GST.ERK2 0.25 μg/100 μl, peptide 1 μg/100 μl, FIG. 17) is listed as “significant binding”. For the same compound, the “binding of non-phosphorylated ERK2” value in the test with ERK2 was “Significant binding”. On to “RSRARYEMASNPLYR (HOMO SAPIENS) [β5, peptide corresponding to a region of the β5 cytoplasmic domain]”, for which the “binding of ERK2 to integrin β subunit cytoplasmic domain peptides” value in the test with ERK2 is “also found”. For “β6 cytoplasmic tail peptide: peptide of the cytoplasmic tail domain of the integrin β6 subunit (HDRKEVAKFEAERSKAKWQTGTNPLYRGSTSTFKNVTYKHREKQKVDLSTDS; HOMO SAPIENS)”, the “binding of non-phosphorylated ERK2” value with ERK2 is recorded as “Significant binding”. In addition, the “binding of JNK-1” value with JNK-1 is given as “Significant binding”.

The values above are taken from patent publication US8119594B1, “Method of modulating integrin mediated cellular activity and agents useful for same” (Inter-K Pty Limited, priority 1999, dated 2012).
